Data on 3 proteins can be found in patent US20210277441A1, “METHOD OF SELECTING A POLYPEPTIDE OF INTEREST” (IMPERIAL COLLEGE INNOVATIONS LIMITED, priority 2018, published 2021).

Substrate in series [1]: CC1=NCCC1
Briefly: Kinetics of parental MsIRED, 2-methylpyrroline reduction with NADPH. The format is biochemical, Myxococcus stipitatus. Conditions: other: cofactor NADPH (0.25 mM); enzyme 1.2 uM.

Substrate in series [2]: CC1=NCCC1
Briefly: Kinetics of evolved MsIRED-s, 2-methylpyrroline reduction with NADH. The format is biochemical, Myxococcus stipitatus. The settings on record: other: cofactor NADH (0.25 mM); enzyme 1.25 uM.

Substrate in series [3]: CC(C)O
Briefly: purified protein, by the assay type. The format is biochemical, Clostridium beijerinckii. Conditions: other: cofactor NADP+ (1 mM); enzyme 110 nM.

B1: Myxococcus stipitatus imine reductase (MsIRED), wild type, SEQ ID NO: 34 (Myxococcus stipitatus DSM 14675) (protein)
chain: MKPTLTVIGAGRMGSALIKAFLQSGYTTTVWNRTKAKSEPLAKLGAHLADTVRDAVKRSDIIVVNVLDYDTSDQLLRQDEVTRELRGKLLVQLTSGSPALAREQETWARQHGIDYLDGAIMATPDFIGQAECALLYSGSAALFEKHRAVLNVLGGATSHVGEDVGHASALDSALLFQMWGTLFGTLQALAISRAEGIPLEKTTAFIKLTEPVTQGAVADVLTRVQQNRLTADAQTLASLEAHNVAFQHLLALCEERNIHRGVADAMYSVIREAVKAGHGKDDFAILTRFLK
With B1, in series [1], the Km worked out at 3.56 mM mM and the kcat turned out to be 89.8 min-1 min-1.

B2: Myxococcus stipitatus imine reductase (MsIRED) variant MsIRED-s (pLS133_1), N32E/R33V/T34R/K37R, SEQ ID NO: 35 (Myxococcus stipitatus DSM 14675; … (protein)
chain: MKPTLTVIGAGRMGSALIKAFLQSGYTTTVWEVRKARSEPLAKLGAHLADTVRDAVKRSDIIVVNVLDYDTSDQLLRQDEVTRELRGKLLVQLTSGSPALAREQETWARQHGIDYLDGAIMATPDFIGQAECALLYSGSAALFEKHRAVLNVLGGATSHVGEDVGHASALDSALLFQMWGTLFGTLQALAISRAEGIPLEKTTAFIKLTEPVTQGAVADVLTRVQQNRLTADAQTLASLEAHNVAFQHLLALCEERNIHRGVADAMYSVIREAVKAGHGKDDFAILTRFLK
For the protein B2, in series [2], the Km worked out at 19.57 mM mM and the kcat is on record as 78.1 min-1 min-1.

B3: Clostridium beijerinckii alcohol dehydrogenase (CBADH), wild type, SEQ ID NO: 1 (Clostridium beijerinckii) (protein)
chain: MKGFAMLGINKLGWIEKERPVAGSYDAIVRPLAVSPCTSDIHTVFEGALGDRKNMILGHEAVGEVVEVGSEVKDFKPGDRVIVPCTTPDWRSLEVQAGFQQHSNGMLAGWKFSNFKDGVFGEYFHVNDADMNLAILPKDMPLENAVMITDMMTTGFHGAELADIQMGSSVVVIGIGAVGLMGIAGAKLRGAGRIIGVGSRPICVEAAKFYGATDILNYKNGHIVDQVMKLTNGKGVDRVIMAGGGSETLSQAVSMVKPGGIISNINYHGSGDALLIPRVEWGCGMAHKTIKGGLCPGGRLRAEMLRDMVVYNRVDLSKLVTHVYHGFDHIEEALLLMKDKPKDLIKAVVIL
For the protein B3, in series [3], the Km was 5.80 mM mM and the kcat was determined as 1185.6 min-1 min-1.
